Measurements reported in patent publication US20260166139A1 (AKESO BIOPHARMA, published 2026).
Values joined by “and” are separate entries in the source; they are usually repeats but may differ in a detail not shown here. Identical values can stand only once.

T1: CTLA4 antigen on the surface of 293F-CTLA4 host cells (UniProt P16410 36-223, limits assumed)
T1 construct: whole, on cells
T1 sequence (looked up): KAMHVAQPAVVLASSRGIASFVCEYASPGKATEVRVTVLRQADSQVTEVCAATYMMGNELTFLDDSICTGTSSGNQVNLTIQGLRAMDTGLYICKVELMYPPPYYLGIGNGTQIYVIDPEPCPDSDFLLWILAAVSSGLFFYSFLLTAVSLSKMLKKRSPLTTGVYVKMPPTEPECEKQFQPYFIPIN

T2: CTLA4 antigen (NCBI Gene ID: 1493) obtained by TEV protease cleavage of CTLA4-mFc (Homo sapiens (Human), UniProt P16410 37-161)
T2 construct: also called the antigen CTLA4
T2 sequence: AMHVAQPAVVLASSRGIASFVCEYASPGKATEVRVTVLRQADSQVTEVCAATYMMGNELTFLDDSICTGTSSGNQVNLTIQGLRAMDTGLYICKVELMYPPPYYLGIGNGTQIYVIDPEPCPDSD

T3: human CTLA4 (human, UniProt P16410 36-161, limits assumed)
T3 construct: also called human CTLA4 antigen; CTLA4 protein
T3 sequence (looked up): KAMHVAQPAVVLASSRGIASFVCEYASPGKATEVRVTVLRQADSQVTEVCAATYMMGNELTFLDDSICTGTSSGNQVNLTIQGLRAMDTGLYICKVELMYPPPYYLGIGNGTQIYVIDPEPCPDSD


What was measured:
CTLA4-mFc [1] = biological target: T4, CTLA4-mFc; assay: competitive ELISA, competitor B7-2
T4 construct: also called CTLA4ECD-mFc fusion protein; CTLA4 antigen
Experimental: (§1) After incubation at 37° C. for 40 minutes, the enzyme conjugated secondary antibody was added. After incubation at 37° C. for 30 minutes, the absorbance at 450 nm was detected on an ELISA plate reader.
Target sequence in this assay (chain, as listed by the source limits assumed): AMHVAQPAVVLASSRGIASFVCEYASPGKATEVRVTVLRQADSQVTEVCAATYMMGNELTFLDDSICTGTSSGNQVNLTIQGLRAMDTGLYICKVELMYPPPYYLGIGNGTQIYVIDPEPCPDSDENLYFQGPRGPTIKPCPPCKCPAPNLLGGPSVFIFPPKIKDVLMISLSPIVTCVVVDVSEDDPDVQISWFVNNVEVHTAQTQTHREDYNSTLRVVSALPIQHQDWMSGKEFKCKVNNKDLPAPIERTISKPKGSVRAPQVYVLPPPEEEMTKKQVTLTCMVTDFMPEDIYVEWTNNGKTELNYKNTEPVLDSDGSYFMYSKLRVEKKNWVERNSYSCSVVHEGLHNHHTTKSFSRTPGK

CTLA4-mFc [2] = biological target: T4, CTLA4-mFc; assay: competitive ELISA, CTLA4-mFc coated, competitor B7/2-His; antibody 3 µg/ml diluted 1:27
Experimental: as §1

CTLA4-mFc [3] = biological target: T4, CTLA4-mFc; assay: competitive ELISA, competitor B7-1
Experimental: as §1
Target sequence in this assay (chain, as listed by the source limits assumed): as above

monkey CTLA4-hFc [4] = biological target: T5, monkey CTLA4-hFc (monkey); assay: ELISA on coated CTLA4, source Monkey
T5 construct: also called monkey CTLA4 antigen
Experimental: (§2) The ELISA plate was coated with CTLA4 at 4° C. over night. […] The enzyme conjugated secondary antibody was added for incubation for 30 min. Then, the absorbance at 450 nm was determined on an ELISA plate reader.

[5] = biological target: T1, CTLA4 antigen on the surface of …; assay: flow cytometry, 293F-CTLA4 cells; antibody 0.001 nM
Experimental: (§3) After addition of 300 μL PBS, the fluorescent signal was detected using the FITC channel on the flow cytometer.

[6] = biological target: T1, CTLA4 antigen on the surface of …; assay: flow cytometry, 293F-CTLA4 cells
Experimental: as §3

[7] = biological target: T2, CTLA4 antigen (NCBI Gene ID: 1493) …; assay: BLI (Fortebio), antibody on AR2G sensor, CTLA4 in solution
Experimental: 2. […] After equilibration in PBST, the CTLA4 antigen was added for binding. […] Dissociation occurred in PBST.

[8] = biological target: T1, CTLA4 antigen on the surface of …; assay: flow cytometry, 293F-CTLA4 cells; antibody 0.01 nM
Experimental: as §3

human CTLA4 [9] = biological target: T3, human CTLA4; assay: ELISA on coated CTLA4, source Human
Experimental: as §2

monkey CTLA4-hFc [10] = biological target: T5, monkey CTLA4-hFc; assay: ELISA, coat monkey CTLA4-hFc 0.25 ug/ml; antibody 0 (blank)
Experimental: as §2

[11] = biological target: T1, CTLA4 antigen on the surface of …; assay: flow cytometry, 293F-CTLA4 cells; antibody 25 nM
Experimental: as §3

[12] = biological target: T1, CTLA4 antigen on the surface of …; assay: flow cytometry, 293F-CTLA4 cells; antibody 10 nM
Experimental: as §3

[13] = biological target: T1, CTLA4 antigen on the surface of …; assay: flow cytometry, 293F-CTLA4 cells; antibody 5 nM
Experimental: as §3

[14] = biological target: T1, CTLA4 antigen on the surface of …; assay: flow cytometry, 293F-CTLA4 cells; antibody 0.1 nM
Experimental: as §3

[15] = biological target: T1, CTLA4 antigen on the surface of …; assay: flow cytometry, 293F-CTLA4 cells; antibody 1 nM
Experimental: as §3

CTLA4-mFc [16] = biological target: T4, CTLA4-mFc; assay: competitive ELISA, CTLA4-mFc coated, competitor B7/2-His; antibody 1 µg/ml diluted 1:3
Experimental: as §1

CTLA4-mFc [17] = biological target: T4, CTLA4-mFc; assay: competitive ELISA, CTLA4-mFc coated, competitor B7/2-His; antibody 1 µg/ml
Experimental: as §1

CTLA4-mFc [18] = biological target: T4, CTLA4-mFc; assay: competitive ELISA, B7/1-hFc coated (competitor), CTLA4-mFc added; antibody 5 µg/ml diluted 1:3
Experimental: as §1

CTLA4-mFc [19] = biological target: T4, CTLA4-mFc; assay: competitive ELISA, B7/1-hFc coated (competitor), CTLA4-mFc added; antibody 5 µg/ml
Experimental: as §1

CTLA4-mFc [20] = biological target: T4, CTLA4-mFc; assay: competitive ELISA, CTLA4-mFc coated, competitor B7/2-His; antibody 1 µg/ml diluted 1:81
Experimental: as §1

human CTLA4 [21] = biological target: T3, human CTLA4; assay: ELISA, coat human CTLA4 0.5 ug/ml; antibody 0 (blank)
Experimental: as §2

CTLA4-mFc [22] = biological target: T4, CTLA4-mFc; assay: competitive ELISA, B7/1-hFc coated (competitor), CTLA4-mFc added; antibody 0 (no antibody)
Experimental: as §1

CTLA4-mFc [23] = biological target: T4, CTLA4-mFc; assay: competitive ELISA, B7/1-hFc coated (competitor), CTLA4-mFc added; antibody 5 µg/ml diluted 1:9
Experimental: as §1

Row | Binder | EC50 (CTLA4-mFc [1]) [nM] | EC50 (CTLA4-mFc [3]) [nM] | fluorescence intensity [5] | EC50 [6] [nM] | Kd [7] [nM] | koff [7] [s⁻¹] | kon [7] [M⁻¹ s⁻¹] | fluorescence intensity [8] | fluorescence intensity [11] | fluorescence intensity [12] | fluorescence intensity [13] | fluorescence intensity [14] | fluorescence intensity [15] | absorbance at 450 nm (CTLA4-mFc [16]) | absorbance at 450 nm (CTLA4-mFc [17]) | further results
1 | humanized antibody 8D2H2L2 (antibody, V domains shown, also called 8D2H2L2(20150327); 8D2H2L2(20140422)) VH: EVQLVESGGGLVQPGGSMRLSCAASGFTFSDNWMNWVRQAPGKGLEWLAQIRNKPYNYETYYSASVKGRFTISRDDSKNSVYLQMNSLKTEDTGVYYCTAQFAYWGQGTLVTVSS VL: DIQMTQSPSSLSASVGDRVTITCRTSENIYGGLNWYQRKPGKSPKLLIYGATNLASGVSSRFSGSGSGTDYTLTISSLQPEDVATYYCQNVLRSPFTFGSGTKLEIK |  |  | 10.8 | 4.37 | 0.955 | 0.000388 | 407000 | 32.5 | 1130 | 1160 | 972 | 124 | 625 |  |  | EC50 (monkey CTLA4-hFc [4]): 0.227 nM; EC50 (human CTLA4 [9]): 0.12 nM and 0.082 nM and 0.118 nM; absorbance at 450 nm (monkey CTLA4-hFc [10]): 0.048
2 | humanized antibody 8D2H2L15 (antibody, V domains shown) VH: EVQLVESGGGLVQPGGSMRLSCAASGFTFSDNWMNWVRQAPGKGLEWLAQIRNKPYNYETYYSASVKGRFTISRDDSKNSVYLQMNSLKTEDTGVYYCTAQFAYWGQGTLVTVSS VL: DIQMTQSPSSLSASVGDRVTITCRTSENIYGGLNWYQRKPGKSPKLLIYGATNLASGVSSRFSGSGSGTDYTLTISSLQPEDVATYYCQNVLSRHPGFGSGTKLEIK | 0.227 | 1.97 |  |  |  |  |  |  |  |  |  |  |  | 0.05 | 0.05 | absorbance at 450 nm (CTLA4-mFc [18]): 0.07; absorbance at 450 nm (CTLA4-mFc [19]): 0.07; absorbance at 450 nm (CTLA4-mFc [20]): 0.75
3 | humanized antibody 8D2H1L1 (antibody, V domains shown) VH: EVQLVESGGGLVQPGGSMRLSCAASGFTFSDNWMNWVRQAPGKGLEWLAQIRNKPYNYETYYSDSVKGRFTISRDDSKNSVYLQMNSLKTEDTGVYYCTAQFAYWGQGTLVTVSS VL: DIQMTQSPSSLSASVGDRVTITCRTSENIYGGLNWYQRKQGKSPKLLIYGATNLASGMSSRFSGSGSGTDYTLKISSLHPDDVATYYCQNVLRSPFTFGSGTKLEIK |  |  | 10.8 | 5.06 | 0.608 | 0.000207 | 340000 | 10.8 | 1170 | 944 | 559 | 21.2 | 103 |  |  | absorbance at 450 nm (human CTLA4 [21]): 0.067

Continued, in another order:

Row | EC50 (CTLA4-mFc [1]) [nM] | EC50 (CTLA4-mFc [3]) [nM] | fluorescence intensity [5] | EC50 [6] [nM] | Kd [7] [nM] | koff [7] [s⁻¹] | kon [7] [M⁻¹ s⁻¹] | fluorescence intensity [8] | fluorescence intensity [11] | fluorescence intensity [12] | fluorescence intensity [13] | fluorescence intensity [14] | fluorescence intensity [15] | absorbance at 450 nm (CTLA4-mFc [16]) | absorbance at 450 nm (CTLA4-mFc [17]) | Binder | further results
4 | 0.208 | 0.44 |  |  |  |  |  |  |  |  |  |  |  |  |  | monoclonal antibody 8D2 (antibody, V domains shown, Mouse antibody purified from hybridoma supernatant; also called mAb 8D2; antibody secreted by the CTLA4-8D2 hybridoma cell line LT001) VH: EVKLDETGGGLVQPGRPMKLSCVASGFTFSDNWMNWVRQSPEKGLEWLAQIRNKPYNYETYYSDSVKGRFTISRDDSKSSVYLQMNNLRGEDMGIYYCTAQFAYWGQGTLVTVSA VL: DIQMTQSPASLSASVGETVTITCGTSENIYGGLNWYQRKQGKSPQLLIFGATNLADGMSSRFSGSGSGRQYSLKISSLHPDDVATYYCQNVLRSPFTFGSGTKLEI | absorbance at 450 nm (CTLA4-mFc [2]): 0.675
5 | 0.296 | 1.79 |  |  |  |  |  |  |  |  |  |  |  | 0.05 | 0.05 | humanized antibody 8D2H2L17 (antibody, V domains shown) VH: EVQLVESGGGLVQPGGSMRLSCAASGFTFSDNWMNWVRQAPGKGLEWLAQIRNKPYNYETYYSASVKGRFTISRDDSKNSVYLQMNSLKTEDTGVYYCTAQFAYWGQGTLVTVSS VL: DIQMTQSPSSLSASVGDRVTITCRTSENIYGGLNWYQRKPGKSPKLLIYGATNLASGVSSRFSGSGSGTDYTLTISSLQPEDVATYYCQNVLSSRPGFGSGTKLEIK | absorbance at 450 nm (CTLA4-mFc [22]): 1.18; absorbance at 450 nm (CTLA4-mFc [23]): 0.08
